Molecular target: T1, His6-BrxR-R17A (Escherichia fergusonii (plasmid pEFER), UniProt B7L3Y3 14-308, R30A)
T1 sequence: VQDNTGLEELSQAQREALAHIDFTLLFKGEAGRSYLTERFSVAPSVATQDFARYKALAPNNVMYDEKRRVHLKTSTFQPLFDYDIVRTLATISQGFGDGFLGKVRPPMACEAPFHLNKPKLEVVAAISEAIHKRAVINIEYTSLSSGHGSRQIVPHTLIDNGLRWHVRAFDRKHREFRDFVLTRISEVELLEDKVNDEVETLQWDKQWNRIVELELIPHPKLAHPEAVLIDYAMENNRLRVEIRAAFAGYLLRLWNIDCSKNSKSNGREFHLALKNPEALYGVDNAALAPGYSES
Experiment: EMSA; only non-specific binding at high protein; EMSA: 10 mM Tris-HCl pH 7.9, 150 mM KCl, 0.5 mM EDTA, 0.2 mM DTT, 0.1% Triton X-100, 13% glycerol (1x of 5x buffer), 1 ug poly(dI-dC) per 10 ul, 2500 fmol probe, 25 C 30 min; 7% native PAGE in 0.5x TBE
Conditions: protein: recombinant; tags: N-terminal His6; chain copies: 2; label: 5' 6-FAM on reverse strand (primer TRB1068); blunt

B1: WT IR1-IR2 probe (R7, R-BOX1) (dsDNA)
DNA 1: GACGACTTGTTGATACTATGAAACCTACTGAAAAACAGTAGGTTGCTTGATGGCATTCAATCGATGGCTTAAGCTTTTGTCAGTGCGCA
DNA 2: TGCGCACTGACAAAAGCTTAAGCCATCGATTGAATGCCATCAAGCAACCTACTGTTTTTCAGTAGGTTTCATAGTATCAACAAGTCGTC
binding result: no binding

Reference: publication PMC9122601, “A widespread family of WYL-domain transcriptional regulators co-localizes with diverse phage defence systems and islands”
